According to paper doi:10.64898/2025.12.30.697132, “Explaining how mutations affect AlphaFold predictions” (bioRxiv, 2025):

Target: the molecule itself
Assay: 19F NMR; 4-F-Phe labelled hXCL1(1-72) at 100 uM in 20 mM NaPO4, 50 mM NaCl, pH 6.5, 35 °C; populations of the dimer fold and the monomeric chemokine fold

B1: Human XCL1(1-72) (domain or fragment, UniProt P47992 22-93, looked up)
chain: VGSEVSDKRTCVSLTTQRLPVSRIKTYTITEGSLRAVIFITKRGLKVCADPQATWVRDVVRSMDRKSNTRNN
modifications: 4-fluorophenylalanine, presumed at F39 (single fluorine atom verified by electrospray mass spectrometry)
notes: XCL1, human, residues 1-72, lacks the disordered C-terminal tail (residues 73-93); The protein exchanges between a monomeric chemokine fold and a dimeric beta-sheet fold; also called hXCL1(1-72); wildtype XCL1
  percent of the protein in the dimer fold: 77%
